Results taken from publication PMC9869178.

Target: recombinant RIIα subunit of PKA, fluorescein 5-maleimide-labelled (UniProt P13861)
Test: other fluorescence titration

recombinant RIIα subunit of PKA, fluorescein 5-maleimide-labelled, sequence (P13861 2-404): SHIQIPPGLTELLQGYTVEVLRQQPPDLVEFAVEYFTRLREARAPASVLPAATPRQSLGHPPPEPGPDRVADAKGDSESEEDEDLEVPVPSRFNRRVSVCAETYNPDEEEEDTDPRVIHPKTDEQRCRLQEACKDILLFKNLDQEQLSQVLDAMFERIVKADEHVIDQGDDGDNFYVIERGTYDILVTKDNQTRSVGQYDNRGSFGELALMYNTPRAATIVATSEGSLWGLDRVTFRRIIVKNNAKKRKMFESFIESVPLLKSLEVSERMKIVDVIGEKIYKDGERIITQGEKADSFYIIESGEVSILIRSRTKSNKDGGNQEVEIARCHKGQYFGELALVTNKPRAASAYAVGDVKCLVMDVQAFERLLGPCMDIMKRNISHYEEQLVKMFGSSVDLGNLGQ

Substance “PI3Kγ mimetic peptide (PI3Kγ MP) (from UniProt P48736 126-150)” has a Kd of 7.5 µM.
